Laboratory results from US6509165.

Target: RT1.D (rat MHC class II molecule) (rat)
Assay: cell-based or functional assay

inhibition of proliferation of PI-specific T cells to 20 ug/ml PI peptide: 22 to 25%
Substance: Ox-17 (anti-RT1.D antibody)
